The term Kd denotes the equilibrium constant for the complex coming apart.

The target of test [1] is Human PCSK9-myc-myc-his (human) (UniProt Q8NBP7). The test is described as follows: SPR, mAb captured on anti-mouse IgG, 25C. (In SPR one partner is held on a chip, and binding of the other changes the refractive index at the surface.)
Test [2] concerns the target hPCSK9(D374Y)-mmh (human) (UniProt Q8NBP7). The test is described as follows: ELISA, coated mAb, 1.2 nM antigen (++ OD>1.0; + OD 0.4-1.0). (In an ELISA, binding on a coated surface is turned into a signal by an enzyme label.)
Test [3] addresses Chimeric protein #3 (mPro-mCat-hC-term-mmh) (mouse; human). The description is as above.
Test [4] concerns the target Human PCSK9-myc-myc-his (human) (UniProt Q8NBP7). The test is described as above.
Test [5] has as its target Chimeric protein #1 (mPro-hCat-mC-term-mmh) (mouse; human) (UniProt Q80W65). The test is described as follows: ELISA, coated mAb, 1.2 nM antigen.
The next test has as its target mouse PCSK9-mmh (mouse) (UniProt Q80W65). The test is described as follows: ELISA, coated mAb, 1.2 nM antigen.
Test [6] deals with Chimeric protein #2 (hPro-mCat-mC-term-mmh) (human; mouse) (UniProt Q80W65). The test is described as follows: ELISA, coated mAb, 1.2 nM antigen.
The target of test [7] is Human PCSK9-myc-myc-his (human) (UniProt Q8NBP7). The test is described as follows: SPR, mAb captured on anti-mouse IgG, 37C.

B1: H1M495 (antibody, from a related filing, V domains shown)
VH: EVQLVESGGGLVQPGRSLRLSCAASGFTFDDYAMHWVRQAPGKGLEWVSGINWNSGSIGYADSVKGRFTISRDNAKHSLYLQMNSLRPEDTALYYCVKEVTTGYYYGMDVWGQGTTVTVSS
VL: DIQLTQSPSFLSASVGDRVTITCWASQGISSYLAWYQKKPGKAPNLLIYDASTLQSGVPSRFSGSGSGTEFTLTLSSLQPEDFATYYCQQLNIYPFTFGPGTKVDIK
Turning to B1, the Kd is 0.44 nM in test [1] and 7.5 nM in test [7]. In addition, the T1/2 in test [1] was 222 min; in test [7], 19 min. Also, the OD was more than 1 od in test [2]; more than 1 od in test [3]; more than 1 od in test [4]; less than 0.4 od in test [5]; less than 0.4 od in the test with mouse PCSK9-mmh (mouse); less than 0.4 od in test [6].

B2: H1M498 (antibody, from a related filing, V domains shown)
VH: EVQLVESGGGLVKPGGSLRLSCAASGFTFSSYSMDWVRQAPGKGLEWVSSISSSSSYIYYADSVKGRFTISRDTAKNSLYLQMNSLRDEDTAVYYCAREGSSRLFDYWGQGTLVTVSS
VL: DIQMTQSPSTLSASVGDRVTITCRASQSISSWLAWYQQRPGKAPKLLIYKASSLEGGVPSRFSGSGSGTEFTLTISSLQPEDFATYYCQQYNSYWYTFGQGTKLEIK
Regarding B2, the Kd is 6.4 nM in test [1] and 7.5 nM in test [7]. The T1/2 in test [1] was found to be 30 min; in test [7], 14 min. For the same molecule, the OD in test [2] is more than 1 od; in test [3] it was 0.4 to 1 od; in test [4], more than 1 od; in test [5], less than 0.4 od; in the test with mouse PCSK9-mmh (mouse) it was less than 0.4 od; in test [6], less than 0.4 od.

Source of the values: US20140099312A1.
